{"source": "paper PMC3684756", "about": "(MicrobiologyOpen, 2013)", "proteins": {"B1": {"name": "His-Lsm4^1–170 (domain or fragment)", "chain": "MLPLYLLTNAKGQQMQIELKNGEIIQGILTNVDNWMNLTLSNVTEYSEESAINSEDNAESSKAVKLNEIYIRGTFIKFIKLQDNIIDKVKQQINSNNNSNSNGPGHKRYYNNRDSNNNRGNYNRRNNNNGNSNRRPYSQNRQYNNSNSSNINNSINSINSNNQNMNNGLG"}}, "molecular_target": "the molecule itself", "assay": "Thioflavin T amyloid formation assay"}
{"protein": "B1", "values": [{"measurement": "binding result", "result": "binds"}]}
